In PMC2814163:
Where two headings read alike, the source gives them in different places.

What was measured:
[1] = target: plasminogen (Homo sapiens) (UniProt P00747); conditions: cited from earlier work
Dom1-3HisK82A (bovine) = Dom1-3HisK82A (bovine) (UniProt P08169); experiment: SPR
[2] = target: Dom1His (domain 1 of the bovine CI-MPR, residues 1-123, C-terminal His6) (bovine) (UniProt P08169); experiment: SPR
[3] = target: soluble form of the cation-independent mannose 6-phosphate receptor isolated from fetal bovine serum (bovine) (UniProt P08169); experiment: SPR
Dom1-3HisK98A (bovine) = Dom1-3HisK98A (bovine) (UniProt P08169); experiment: SPR
[4] = target: Dom1-2His (domains 1-2 of the bovine CI-MPR, residues 1-281, C-terminal His6) (bovine) (UniProt P08169); experiment: SPR
Dom1-3HisR118A (bovine) = Dom1-3HisR118A (bovine) (UniProt P08169); experiment: SPR
Dom1-3HisK53A (bovine) = Dom1-3HisK53A (bovine) (UniProt P08169); experiment: SPR
Dom1-3HisK215A (bovine) = Dom1-3HisK215A (bovine) (UniProt P08169); experiment: SPR
Dom1-3HisK132A (bovine) = Dom1-3HisK132A (bovine) (UniProt P08169); experiment: SPR
Dom1-3HisK125A (bovine) = Dom1-3HisK125A (bovine) (UniProt P08169); experiment: SPR
Dom1-3HisK23A (bovine) = Dom1-3HisK23A (bovine) (UniProt P08169); experiment: SPR
[5] = target: Dom1-3His (extracytoplasmic domains 1-3 of the bovine CI-MPR, residues 1-432, C-terminal His6) (bovine) (UniProt P08169); experiment: SPR
[6] = target: Dom1-3His (extracytoplasmic domains 1-3 of the bovine CI-MPR, residues 1-432, C-terminal His6) (bovine) (UniProt P08169); experiment: SPR; remark: listed apart in the source

Sequence of Dom1-3His (extracytoplasmic domains 1-3 of the bovine CI-MPR, residues 1-432, C-terminal His6) (bovine) (P08169 45-476): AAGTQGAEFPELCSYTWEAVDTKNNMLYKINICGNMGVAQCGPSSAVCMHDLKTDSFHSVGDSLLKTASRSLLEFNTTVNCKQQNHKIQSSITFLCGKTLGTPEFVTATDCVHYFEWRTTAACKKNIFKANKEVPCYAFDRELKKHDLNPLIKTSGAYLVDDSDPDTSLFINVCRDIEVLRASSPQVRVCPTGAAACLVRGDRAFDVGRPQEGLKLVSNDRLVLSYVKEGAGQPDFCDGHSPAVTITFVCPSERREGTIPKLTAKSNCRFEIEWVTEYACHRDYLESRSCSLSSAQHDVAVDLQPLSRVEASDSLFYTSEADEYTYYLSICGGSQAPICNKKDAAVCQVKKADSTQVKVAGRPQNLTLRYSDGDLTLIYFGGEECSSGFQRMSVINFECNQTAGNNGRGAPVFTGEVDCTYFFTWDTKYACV
Sequence of Dom1His (domain 1 of the bovine CI-MPR, residues 1-123, C-terminal His6) (bovine) (P08169 45-167): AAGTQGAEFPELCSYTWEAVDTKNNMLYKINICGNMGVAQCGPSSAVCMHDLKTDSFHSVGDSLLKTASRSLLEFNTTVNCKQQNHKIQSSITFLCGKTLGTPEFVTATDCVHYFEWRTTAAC
Sequence of Dom1-3HisK215A (bovine) (P08169 45-476 K259A): as the sequence (P08169 45-476) above, with K215A counted along it
Sequence of plasminogen (Homo sapiens) (P00747 20-810): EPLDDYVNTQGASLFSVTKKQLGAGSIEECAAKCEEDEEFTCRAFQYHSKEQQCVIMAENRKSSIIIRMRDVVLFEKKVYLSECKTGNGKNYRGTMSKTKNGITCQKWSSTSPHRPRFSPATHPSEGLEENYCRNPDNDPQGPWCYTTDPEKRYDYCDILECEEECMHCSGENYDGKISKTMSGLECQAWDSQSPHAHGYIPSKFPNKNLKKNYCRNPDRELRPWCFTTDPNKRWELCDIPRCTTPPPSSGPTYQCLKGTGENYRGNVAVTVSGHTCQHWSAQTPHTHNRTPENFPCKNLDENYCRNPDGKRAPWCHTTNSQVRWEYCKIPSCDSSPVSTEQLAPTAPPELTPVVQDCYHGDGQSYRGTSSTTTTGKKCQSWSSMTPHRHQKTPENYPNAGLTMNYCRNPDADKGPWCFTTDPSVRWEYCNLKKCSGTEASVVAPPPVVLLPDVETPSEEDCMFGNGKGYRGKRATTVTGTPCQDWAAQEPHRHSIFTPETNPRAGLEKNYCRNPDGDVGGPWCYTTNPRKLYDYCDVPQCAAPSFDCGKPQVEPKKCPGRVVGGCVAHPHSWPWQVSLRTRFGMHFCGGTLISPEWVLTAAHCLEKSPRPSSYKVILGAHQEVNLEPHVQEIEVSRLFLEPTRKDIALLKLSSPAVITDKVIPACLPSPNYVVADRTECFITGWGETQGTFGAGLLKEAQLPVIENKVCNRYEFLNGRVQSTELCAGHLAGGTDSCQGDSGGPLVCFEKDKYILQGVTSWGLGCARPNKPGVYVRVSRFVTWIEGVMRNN
Sequence of Dom1-3HisK53A (bovine) (P08169 45-476 K97A): as the sequence (P08169 45-476) above, with K53A counted along it
Sequence of Dom1-3HisK23A (bovine) (P08169 45-476 K67A): as the sequence (P08169 45-476) above, with K23A counted along it
Sequence of Dom1-3HisR118A (bovine) (P08169 45-476 R162A): as the sequence (P08169 45-476) above, with R118A counted along it
Sequence of soluble form of the cation-independent mannose 6-phosphate receptor isolated from fetal bovine serum (bovine) (P08169 45-2313): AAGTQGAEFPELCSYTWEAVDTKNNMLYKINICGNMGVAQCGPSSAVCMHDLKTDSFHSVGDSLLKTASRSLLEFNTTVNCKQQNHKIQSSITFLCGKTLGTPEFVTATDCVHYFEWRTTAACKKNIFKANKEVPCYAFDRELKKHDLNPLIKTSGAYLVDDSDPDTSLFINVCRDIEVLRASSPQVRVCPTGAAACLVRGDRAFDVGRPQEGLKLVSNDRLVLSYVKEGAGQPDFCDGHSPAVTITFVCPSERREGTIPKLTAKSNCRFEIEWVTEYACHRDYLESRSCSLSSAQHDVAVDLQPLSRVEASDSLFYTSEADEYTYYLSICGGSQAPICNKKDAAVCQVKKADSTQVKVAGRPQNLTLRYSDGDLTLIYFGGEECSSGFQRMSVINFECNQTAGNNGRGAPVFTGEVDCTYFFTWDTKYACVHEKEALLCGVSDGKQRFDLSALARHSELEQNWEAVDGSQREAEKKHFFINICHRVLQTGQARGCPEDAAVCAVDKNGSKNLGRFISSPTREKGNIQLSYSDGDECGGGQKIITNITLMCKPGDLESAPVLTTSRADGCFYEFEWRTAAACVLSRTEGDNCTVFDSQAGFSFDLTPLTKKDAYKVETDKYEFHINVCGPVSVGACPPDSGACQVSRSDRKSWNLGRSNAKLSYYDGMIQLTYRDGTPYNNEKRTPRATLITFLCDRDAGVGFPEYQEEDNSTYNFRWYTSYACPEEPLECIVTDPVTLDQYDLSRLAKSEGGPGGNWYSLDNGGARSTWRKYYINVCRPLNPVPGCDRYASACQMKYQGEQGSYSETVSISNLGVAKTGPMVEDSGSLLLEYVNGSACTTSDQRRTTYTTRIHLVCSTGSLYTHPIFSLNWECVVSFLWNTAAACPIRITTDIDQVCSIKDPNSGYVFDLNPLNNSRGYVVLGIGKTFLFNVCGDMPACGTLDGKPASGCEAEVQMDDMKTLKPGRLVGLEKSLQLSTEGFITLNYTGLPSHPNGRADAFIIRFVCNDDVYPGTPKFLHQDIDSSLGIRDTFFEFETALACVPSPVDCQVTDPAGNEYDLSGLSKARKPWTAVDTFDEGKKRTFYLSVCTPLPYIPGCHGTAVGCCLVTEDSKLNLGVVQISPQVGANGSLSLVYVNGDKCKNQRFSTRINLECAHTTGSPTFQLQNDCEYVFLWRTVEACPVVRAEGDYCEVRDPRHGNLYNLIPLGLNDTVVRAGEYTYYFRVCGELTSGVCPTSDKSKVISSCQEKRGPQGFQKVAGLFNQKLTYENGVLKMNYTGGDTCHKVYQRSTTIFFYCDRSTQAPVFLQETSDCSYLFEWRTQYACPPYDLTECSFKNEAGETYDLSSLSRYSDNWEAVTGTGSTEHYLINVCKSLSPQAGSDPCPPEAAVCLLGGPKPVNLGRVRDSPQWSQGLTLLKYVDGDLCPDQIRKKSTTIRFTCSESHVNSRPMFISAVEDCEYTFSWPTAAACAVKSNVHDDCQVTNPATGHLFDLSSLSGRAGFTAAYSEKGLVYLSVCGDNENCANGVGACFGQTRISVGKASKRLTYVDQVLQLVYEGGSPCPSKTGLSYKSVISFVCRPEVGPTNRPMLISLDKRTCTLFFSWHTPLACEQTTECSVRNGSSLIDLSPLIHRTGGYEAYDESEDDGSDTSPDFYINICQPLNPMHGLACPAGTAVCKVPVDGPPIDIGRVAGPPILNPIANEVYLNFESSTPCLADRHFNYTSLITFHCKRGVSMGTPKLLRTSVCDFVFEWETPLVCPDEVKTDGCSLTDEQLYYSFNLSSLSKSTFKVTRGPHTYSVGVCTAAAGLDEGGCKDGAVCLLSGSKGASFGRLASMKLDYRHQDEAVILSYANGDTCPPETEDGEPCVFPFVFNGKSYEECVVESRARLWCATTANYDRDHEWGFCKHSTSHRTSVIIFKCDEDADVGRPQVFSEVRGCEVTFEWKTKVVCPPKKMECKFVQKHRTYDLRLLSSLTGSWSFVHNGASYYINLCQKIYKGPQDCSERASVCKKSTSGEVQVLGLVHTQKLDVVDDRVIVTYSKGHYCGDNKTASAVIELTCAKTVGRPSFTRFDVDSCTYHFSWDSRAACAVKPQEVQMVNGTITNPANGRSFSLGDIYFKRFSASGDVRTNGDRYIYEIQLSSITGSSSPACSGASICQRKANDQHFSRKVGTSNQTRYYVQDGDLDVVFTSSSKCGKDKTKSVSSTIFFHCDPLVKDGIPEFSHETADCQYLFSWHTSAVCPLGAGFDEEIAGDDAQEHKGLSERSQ
Sequence of Dom1-3HisK98A (bovine) (P08169 45-476 K142A): as the sequence (P08169 45-476) above, with K98A counted along it
Sequence of Dom1-2His (domains 1-2 of the bovine CI-MPR, residues 1-281, C-terminal His6) (bovine) (P08169 45-325): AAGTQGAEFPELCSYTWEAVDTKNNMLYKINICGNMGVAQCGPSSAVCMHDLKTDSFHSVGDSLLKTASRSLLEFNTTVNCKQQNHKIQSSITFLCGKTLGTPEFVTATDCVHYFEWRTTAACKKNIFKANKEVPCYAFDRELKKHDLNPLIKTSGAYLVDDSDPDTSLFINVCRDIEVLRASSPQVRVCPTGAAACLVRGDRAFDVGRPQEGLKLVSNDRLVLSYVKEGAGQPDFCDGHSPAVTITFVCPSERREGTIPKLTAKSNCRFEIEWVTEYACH
Sequence of Dom1-3HisK125A (bovine) (P08169 45-476 K169A): as the sequence (P08169 45-476) above, with K125A counted along it
Sequence of Dom1-3HisK82A (bovine) (P08169 45-476 K126A): as the sequence (P08169 45-476) above, with K82A counted along it
Sequence of Dom1-3HisK132A (bovine) (P08169 45-476 K176A): as the sequence (P08169 45-476) above, with K132A counted along it

Substance | Kd [1] [nM] | Kd (Dom1-3HisK82A (bovine)) [nM] | Kd1 (two-site model) [2] [µM] | Kd2 (two-site model) [2] [µM] | Kd2 (two-site model) [3] [nM] | Kd (Dom1-3HisK98A (bovine)) [nM] | Kd2 (two-site model) [4] [nM] | Kd (Dom1-3HisR118A (bovine)) [nM] | Kd (Dom1-3HisK53A (bovine)) [nM] | Kd (Dom1-3HisK215A (bovine)) [nM] | Kd (Dom1-3HisK132A (bovine)) [nM] | Kd (Dom1-3HisK125A (bovine)) [nM] | Kd (Dom1-3HisK23A (bovine)) [nM] | Kd [5] [nM] | Kd [6] [nM]
CI-MPR (from UniProt P11717) | 270 | – | – | – | – | – | – | – | – | – | – | – | – | – | –
bovine Glu-plasminogen (natural protein) | – | 69 | > 2 | > 2 | 290 | 24 | 170 | 21 | > 2000 | 10 | 64 | > 2000 | 33 | 271 | 131
human angiostatin K1-4 (domain or fragment) | – | – | – | – | – | – | – | – | – | – | – | – | – | 170 | –
